# In a protein production outcome set (Wang et al. 2014):
# Assay: label from the status in PepcDB records
# 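Further: failed if final PepcDB status was selected cloned or expressed and not failed if soluble or beyond.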
row,Sequence,protein production
1,MLTTTRRAALISGLATTGLAAFGNRAFAQETGAVGAAVDKFAQDVMAAFPDQPGLGITVVENGQITLAKGYGVKALGGQDRCDESTVFGIASNTKAMTAALLAMLVEEGRVEWDAPVTQYLPDFAMKDPIVTKLLTVRDLLVHRSGLSLGAGDLMIWPAPTHTRAEIVAGLKHLPIGGQFRGGYAYDNVLYVVAGAVIEAVTGQTWEQVIKARIFDPLGMSNTVSSPRLVDQSRRALPHARLGPPVRGLGPQKVLPFDASFDAAGPAGGVNSCPADIGKWMQVQLGRGVSADGKRLWSEAQAREMWKPQTITSSSDGPSNENPARPSMQAYALGWYVQDHRGERLLWHTGGLAGFISYTGLLPGRKSGIMIMTNAEENPVLRSLRFGGPDRLQGRSDFDWIASSKRVQAEADAQTIKDAAAATTPKGGGAPPSLPLEAYAGVYRDPWYGTVTISVTGKGKKKGLYVSFDKTPLLRGKLGPFDGETFITTFEDRTQEDAFFTFDIKDGKAVSALVKAVSPLADFSYDYHDLRLTKEG,failed
2,MIGRHHPILAWAAVVAIGGGVIVLGGIGLPGAGDWLSDWTRAITSRQAGFHRELGQAVRDLAGEGGGAAGVGLLIASLGYGVFHALGPGHGKAVIGAYAATTATGFRRAALLSLAAALIQATTAVVLVDGAFLVMRGGAHWANRTAERWLEPASYAAILGLGLYLGGRGLLAIVRAGRPSPGGDHRPTHPGQARDEEACAHCGHAHGPTADQVAKATEWRSAAMIALAVGIRPCSGAILVLVVANGLGLWAAGILAAYVMALGTAATVALLAVGARASRLPIAGLARRLPLSPALLGGLAGTLAGLILVVLAGLLLRASLLAPVHPLLG,failed
3,MAEAIFALDVGTRKVAGLVLAQGKKGYHIQAAAVVEHQQRAMLDGQIHDIPQVALAIQDVKGQLEKKLHISLKEAAVAAAGRALKTWRASATSQLSPAQEIAPQAVLALEAAAVQEAEKLLLEASEQPLAYHCVGYSVVGYNLDGHPIGNLVGQRGQSMTAEVIATFLPRVVVDSLVTALERAGLAMHSLTLEPIAASAVAVPAAMRGLNLALVDIGAGTSDIAITGQGTISGYAMVPSAGDEITEALASALILDFNTAERVKRQLSTRENLTFTDVVGQRHTLAAAELMEIIKPAVTELARQVATQIILLNGKPPQAVLLIGGGSLTPGLAAALAGQLEISPERVAVRGREVLNGISGAKNLQGPQAITPIGIAITALKREGLGLARVIVNGRPVHFLAGQQMTVTQALLAAGIPARHLYGRPGRGLGVEVNGRLTFLRGQPGEPGKILVNEAPATLETVVKAGDHIIVTPGRDGADAWGTVGDLVPELAPKTITFNGRRITLEPEIIMNGNRVDYRTPVQDQARITYNPLDTVARVLEYLGEPLDGPVLLNGQQVRPEAPIKDGDNLVTGAGATGRNINITINGRPATLRVQAGEALFTDVFNYLDFPSSPPPGRKTLVMEVNGRPAEFTTPLAEGDAVTLRWDP,failed
4,MQNTIIQKAVNKDLNSILEITKDALNAMKTMNFHQWDENYPNEIVFQEDIQAQELYVFKENDEILGFICINEKFKPEFYKQVIFNKNYDDKAFYLHRLAVKQNAKGKGVAQKLLNFCENFALENHKASLRADTHSKNFPMNSLFKKLDFNFCGNFDIPNYQDPFLAYEKILNQKAF,not failed
5,MKIWTSEHVFDHPWETVTTAAMQKYPNPMNPSVVGVDVLDRHIDPSGKLHSHRLLSTEWGLPSIVKSLIGAARTKTYVQEHSVVDPVEKTMELKSTNISFTNMVSVDERLIYKPHPQDPEKTVLTQEAIITVKGVSLSSYLEGLMASTISSNASKGREAMEWVIHKLNAEIEELTASARGTIRTPMAAAAFAEK,failed
6,MELGAYRWKAPVGYLDEYVKSFRERKIIGSLCASCGRVYVPPREICARCFTETAEKVEVSQYGEVLAFLVSPPLEKGKVVIAGIDAVQAGFLKEGEQIILAMVRFEGTSSSLVLPLINTEPEKVRVGMKVKAVWAEECKGKLADLIGVEPAFEVIYKLEHHHHHH,failed
7,MSHAVVSWTLWSLALYLTLPYLSSAIEHSINNPLFVGPFYIISSGIGSLSLLALERHVKLLSTIGLALSGIGLLMIGVDANQLLTIIGFIFYNLYWLSVPIFYYLLSEEEGSLTKAWSISMVPAIIMPVIAGILIRWGEIIIFILGGLLQLTSSIILILVKHRIDEDHMVGYDVGIPKNVIFVVLPLSIVMPFLYLDVRESLIWVIYSSGQILGILMSWFLWKSKNAIMLSLIIFSGIIFSVFSPIGILFYGSSEALVALGIEKSRPSLMKHAIKVALTEALVWTVGYAVGSLLYYISGFLPFIYSSLVSLILAMIIGLFSSLTFNSVISKNPLKNTIPFKIVRYLTLREGIFPYFKIS,failed
8,MKRKMENMKYTMSYIAKNFRVALMLSLMMLLCSCSSEDKLELHKGATLPIMQGIADNVPYIQSVEKELTYDLYDGVRITDVIFTYCAKPTRMIIAEVDLNKNVTIVTSTPDNKPEVGKILQQVTVQAEKAEAAGRKVILGTNGDFYSKKNDLWIPGGLFYKDGVAIKTEIGWEADHVFYMLKDGTAHITSVPEFKLVEREVVHAIGGWQRMVQDGEVVKNFTVNDNAMQFHPRTFVGVSADNRKVYLFVVDGRQPEYSNGMRLEDMMLLCQGAGCYQAFNMDGGGSTTMVRRVEKGSSVSFEVMNQPSDNPARSVINGLQVIEKTN,failed
9,MYTKGSVSTRIAKYLFIILIVAGVISSLSLAIMSSNKYDAEAINISGSLRMQSYRLLYEMQEQPESVETNLRRYHISLHSSALLEVQNQFFTPNVLKHSYQNILQRWTNMEKYARQQDVKNYSKQLTDYVADVDYFVFELQRFSEQKWILGVSVLGFAMLLILLMVSYVIWYTNREVVKPLHLMTKASMQVQMRQFNHIPLDTRKQNELGTLARVFTQMSTELGQLYSRLEEAVNEKTQKLRQTNRTLSTLYQSAQLLNTNTINDKILNQVLNYIFISDHLNFVKVEVMGAEHWDITLGKQDANNELQIETLSVDNEELGVLSWQAGLPCPDPRIMQNLAQMLARALYFHKNLRQKEQLLLMEERSIIARELHDSLAQVLSFLQIQLTLLKHNLKKEDEQSKEKSLAIIANFEQALSGGYAQLRELLATFRLTIQEANLQLALKQVIDSLRSQTTMQMNVNCQLPSQSLNPQQLVHVLQIVREATTNAIKHSQGTVIEISARINAEGEYEILVEDDGVGIPNLEEPEGHYGLNIMAERCRQLNAQLHIHRREQGGTQVKITLPHTLY,failed
10,MFIERLVALLLLFAGEFAYLRIADRFNIIDRPNQRSSHKKNVLRGGGIIFLLGVWMYAFLNTTGYPLFIGGMTLIASVAFIDDVCSLSPRFRFFVQFVAMFLLLQEAGMLVENKVWFLLPTMILGVCIINAYNFMDGINGMTGAFSLMVLFTFWLLNREMAFIDATLIELLMISALVFCFFNFRNQAICFAGDVGSVGMAYCVIFILLKLVLFTGNVTYLLFLVVYGIDTVLTIFHRLLLHENLLQPHRKHLFQLLANEGGHSHVTVSITYVLLQLAISLGYIYLPIDKWLYSVIVTIGLVTAYLIIERKLYPKHKEYLKSLSCAVMDEGYSEKCLRNEN,failed
11,MMKLVCPSYIAKRKDSLAFKLFSYMTAIVISILLVQALAEQALVKAMLKVPNSVKMEMLDLAHQANVLIEHGDMDELADWANAQQFYLFVLNEQLQPVTHRLMHPHFEFKLQFKRSIDDQLEDKVNRPIISIPLVQQHNLVIQLPHRLHPANDFILYFSIIKVVIAAVILALFSLLMARNLQQPLDRLREASKKLSNGDFNVSVVQELKSNTREFNELAQDFDHMTKEIHSLAEKQRLLIRDVSHELRTPLARQNLVLHLLRKRVGESEQELVTRLEDEAKELNHLISDILEFSRLENARYDKETKRSDLEVLLAPQVERCKIDLRESQSIVFISRVTEPRAYCEDTLVVRCLNNLVGNAIKYAGEDARIEVTLTNQEINGQAYLVMSVSDDGPGIPENKLSDIFNPFTRLDASRDKKLGGYGLGLAIVKESMRMMGGSVNAENRSQGGLTVSLVFRQ,failed
12,MFLTAVNPQPLSTPSWQIETKYSTKVLTGNWMEERRKFTRDTDKTPQSIYRKEYIPFPDHRPDQISRWYGKRKVEGLPYKHLITHHQEPPHRYLISTYDDHYNRHGYNPGLPPLRTWNGQKLLWLPEKSDFPLLAPPTNYGLYEQLKQRQLTPKAGLKQSTYTSSYPRPPLCAMSWREHAVPVPPHRLHPLPHF,failed
13,MAVGLPLLLSSMAMPAQAAPAPEAPGNVAGVAKKNLDPGSYKDGRYMVVLAEKPAATYDGGTAGLAPTKPEEGKKLDVDSAEVKQYQQHLQQKQQEVAQQENVTIKRDFTTAVNGFSATLTADQAINLAKDPKVLMVAPDTQYAPDYSTTDFLKLSGPNGTWATQYGGQDNAGKGTVVGVIDTGYTPSNPFFAGEPVGPLVGNPQVGVPYRTADGKIAMLKADGDTFVGECQPGTDTGADYDGSACNSKVLSTHYFADAFLETVPPENRAPEEVISPVDVDSHGTHTASTAAGNANVDAVVDGRSFGTTSGIAPAAKLSVYKVCWEDTDPATGGCYGSASVDAIEQAILDGVDVLNYSISGSTTSTTDPVSLAFLSAASAGIFVATSAGNSGPTASTVNHGAPWLTTVAATSFSQELQGTVEFSDGSKFRGASIMNREVTGAGVVLSTNAASGEGNAALCAPGSLDPAKVAGKVVVCDRGVVDRTAKSAEVLRGGGVGMILVNLTDSSLDTDKHIIPTVHVNPPATQTIKDKVTANPAITVSLLNRDTTGLPAEAQPQIAGFSSRGPLLATDSDLLKPDVSAPGVAILAGVSPIGTGGDNFGFLSGTSMASPHVAGFGALILAKNPQWSPATVKSAMMTTAGPVKLANGAVNKDVFATGAGQVDPAKVLSPGLVYDATTEDYLKFIQGTGMDLGMEGLGTTQARDMNVPSFALGNLAGKIEVTRTLTALTPGTYRASVNVPGVNVKVTPSVLTFGAPGEKKTFKVQFENNNAALGKFAMGSLNWQGANKTVTSPIAVRPQSVIADKALAFTGTGPNGSGTINITSGTNLPVGVTIDGLSKADSSAVELVPGPFAGETNASNYVKKVTVGEGSALAKFSVISSNEAADFDMLVVTPSGQQLPAATASASETLSVPNPAAGDYYVYANLYASPNNQATKATVDAAVLGANQGNASVTPNPIRLANGKTGQISLNWKNLEPGSYIGRLTFAGTSEPSFVTVLVNPGGAVVVPDEEDPKKDKKDKKHRGKIRADEPTQSNNAG,failed
14,MKQIRLLAQYYVDLMVKLGLVRFSLLLASVLVLLAMVVQMAVTLLLSGEVENIDVVRSIFFGLLITPWAVYFLSVVVEQLEESRQRLSKLVAKLEEMRHRDLELNVQLQENIAQLNQEIADRIKAEEARVLVMSRLKEEMSRREQAQIELEQQSALLRSFLDASPDLVYYRNEEKEFSGCNRAMELLVGKSQKQLIGLTPQDVYAPDIAEKVMETDEKVFRHNVSLTYEQWLVYPDGRKACFELRKVPFYDRMGKRHGLMGFGRDITERKRYQDALENASRDKTTFISTISHELRTPLNGIVGLSRILLDTQLDLEQQKYLKTIHVSAITLGNIFNDVIEMDKQERRKVQLDNQPIDFTGFLVDLENLGGLLAEQKGLKLIMDQHQPLPQKVITDGTRLRQILWNLLSNAVKFTPKGEKGEKGEIVVRVWHEKGDRLRFEVEDSGMGIPADELEKIFAMYYQVKDQHGGKPATGSGIGLAVSKRLAQNMGGDIHVSSSQGKGSCFTLTVIAPSADEAGSGLEDDDDLPLPALHVLLVEDIELNVVVARSVLEKLGNSVDVAMTGQEALDMFDPDEFDLVLLDIQLPDMTGLDVARQLRSRYGKRSLPPLVALTANVLKDKREYLDAGMDDVLSKPLSVPALTAVIKQHWDTHTVWTEESVVEEGDEMAKVKEDLLDIPMLEQYLDLVGPKLIHQSLEMFEQMMPGYLAILDSNMTARDQKGITEEGHKIKGAAGSVGLRHLQQIAQQIQTSSLPAWWDNVQEWIDELKHDWRHDVQVLRDWVAKAEKES,failed
15,MEQPQEEAPEVREEEEKEEVAEAEGAPELNGGPQHALPSSSYTDLSRSSSPPSLLDQLQMGCDGASCGSLNMECRVCGDKASGFHYGVHACEGCKGFFRRTIRMKLEYEKCERSCKIQKKNRNKCQYCRFQKCLALGMSHNAIRFGRMPEAEKRKLVAGLTANEGSQYNPQVADLKAFSKHIYNAYLKNFNMTKKKARSILTGKASHTAPFVIHDIETLWQAEKGLVWKQLVNGLPPYKEISVHVFYRCQCTTVETVRELTEFAKSIPSFSSLFLNDQVTLLKYGVHEAIFAMLASIVNKDGLLVANGSGFVTREFLRSLRKPFSDIIEPKFEFAVKFNALELDDSDLALFIAAIILCGGE,not failed
